The text below walks through data of the nanobody polyreactivity screen of Harvey et al. (2022).

The nature of this series: yeast display, Sf9 membrane polyspecificity reagent, FACS + sequencing; frameworks hold sequencing errors. Put shortly:
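Using colony PCR, genes from sorted yeast display clones were amplified, then sequenced on MiSeq at 2 × 250 and filtered by CDR length. The clones had been stained with 10% biotinylated, detergent-solubilized Sf9 membrane reagent for 1 hour at 4 °C and sorted by FACS into low and high (top ~1%) gates on anti-HA and streptavidin fluorescence. Polyreactivity labels come from the gate of origin.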
For “QVQHVESGGGLVQAGGSLRLSCAASGRIFGYYAMGWYRQAHGKQSELVAAITSGGRTNYADSVKGRFTISRDNAKNTVYLQMNSLKPEDTAVYYCAKEYPRYSSPYDYWGQGTQVTVSS”, the “polyreactivity (PSR sort gate)” value is recorded as “low polyreactivity”.
On to “QVQLVESGGGLVQAGGSLRLSCAASGIIFDGNVMGWYRQAPGKEREFVASISISGGSTSYADSVKGRFTISRDNAKNTVYLQMNSLKPEDTAVYYCNTDVGYGRVWRWRYHGDYWGQGTQVTVSS”, for which the “polyreactivity (PSR sort gate)” value is given as “low polyreactivity”.
As for “QVQLVESGGGLVQAGGSLRLSCAASGSTLRAYAMGWYRQAPGKERELVAAITRRGGSTSYADSVKGRFTISRDNAKNTVYLQMNSLKPEDTAVYYCARVVVTRHPKSIEYDYWGQGTQVTVSS”, the “polyreactivity (PSR sort gate)” value is “high polyreactivity”.
Take “QVQLVESGGGLVQAGGSLRLSCAASGFILRAYAIGWYRQAPGKERELVAAITSATSTNYADSVKGRFTISRDNAKNTVYLQMNSLKPEDTAVYYCAADGGGGEFSYDSWGQGTQVTVSS”: the “polyreactivity (PSR sort gate)” value is on record as “low polyreactivity”.
As for “QLQLVESGVGLVQAGGSLRLSCAASGSILPVYPMGWYRQAPGKERELVAAISVSGGSTSYADSVKGRFTISRDNAKNTVYLQMNSLKPEDTAVYYCAARYRYSYGYWGQGSQVTVSS”, the “polyreactivity (PSR sort gate)” value is reported as “high polyreactivity”.
Turning to “QVQLVESGGGLVQAGGSLRLSCAASGSIFGGYGMGWYSQAPGKERELVAAITSGSSTYYADSVKGRFTISRDNAKNTVYLLMNSLKPEDTAVYYCAKVSYYPWRYDYWGQGTQVTVTS”, the “polyreactivity (PSR sort gate)” value is given as “low polyreactivity”.
Turning to “QVQLVESGGGLVQAGGSLLLSCAASRSISYAYAMGWYRQAHGKERELVAAISWSDGSTYYADSVKGRFTISRDNAKNTVYLQMNSLKPEDTAVYYCAADYGWHYGDWYDYWGQGTQVTVSS”, the “polyreactivity (PSR sort gate)” value is “low polyreactivity”.
For the sequence “QVQLVESGGGLVQAGGSLRLSSAASGLIFSVYAMGWYRQAPGKERELVAAISSRGGTTYYADSVKGRFTISRDNAKNTVYLQMNSLKPEDTAVYYCAARSWSYTYDYWGQGTQVTVSS”, the “polyreactivity (PSR sort gate)” value is given as “high polyreactivity”.
For the sequence “QVQLVESGGGLVQAGGSLRLSCAASGSIFYVYAMGWYRQAPGKERELVAAITARVTSTYYADSVKGRFTISRDNAKNTVYLQMNRLKPEDTADYYCAARTSYKTGYRKYDYWGQGTQVTVSS”, the “polyreactivity (PSR sort gate)” value is “low polyreactivity”.
Take “QVQIVESGGGLVQAGGTLRLSCAASGFIFSSYGMGWYRKAPGKERELVADISGGGSTNYADSVKGRFTISRDNAKNSVYLQMNSLKPEETAVYYCNAQLIRSAAYDYWGQGTQVSVSS”: the “polyreactivity (PSR sort gate)” value was “low polyreactivity”.
Take “QVQLVESGGGLVQAGGSLRLSCAASGSIFSSYAMGWYRQAPGKERELVAAITSGGSTYYADSVKGRFTISRDNAKNTVYLQMNSLKPEDTAVYYCAAYRSYFGYDYWGQGTQVTVSS”: the “polyreactivity (PSR sort gate)” value is “low polyreactivity”.
As to “QVQLVESGGGLVQAGGSLRLSCAASGRIFYRYAMGWYRQAPGKERELVAAITRGGRTNYADSVKGRFTISRDNAQNTVYLQMNSLKPEDTAVYYCRPLWYGFDYWGQGTQVTVSS”, the “polyreactivity (PSR sort gate)” value is reported as “high polyreactivity”.
As for “QVQLVESGGGLVQAGGSLRLSCAASGFIFYSNAMGWYRQAPGKERELVAAISRSGGSTYYADSVKGRFTISRDNAKNTVYLQMNSLKPEDTAVYYCNADYVYRRYGYWGQGSQVTVSS”, the “polyreactivity (PSR sort gate)” value is recorded as “high polyreactivity”.
With “QVQLVESGGGLVQAGGSLRLSCAASGSTLLIYVMGWYRQAPGKERELVAAISKRSGSTYYADSVKGRFTISRDNAKNTVYLHMNSLKPEDTAVYYCATRPYVRWYDYWGQATQVTVSS” the entry was “high polyreactivity”; with “QVQLVESGGGLVQAGGSLPLSCAASGSIFKTYAMGWYREAPGKERELVAAIRDSGDRTYYADSVKGRFTISRDNAKNTVYLQMNSLKPEDTAVYYCNARWQEALKYDYWGQGTQVTVSS”, “low polyreactivity”.
With “QVQLVESGGGLVQAGGSLRLSCAASGRIFRDYAMGWYRQAPGKERELVAAITRSGDTTYYADSVKGRFTISRDNAKNTVYLQMNSLKPEDTAVYYCAARYVSRYYVYRGFEYWGQGTQVTVSS” the entry was “high polyreactivity”; with “QVQLVESGGGLVQAGGSLRLSCAASGSTIRDYAMGWYRQAPGKERELVAVIDNSGGRTYYADSVKGRFTISRDNAKNTVYLQMNSLKAEDTAVYYCNTRRIAQYGYWGQGTQVTVSS”, “high polyreactivity”.
As to “QVHLVESGGGLVQAGGSLRLSCAPSGRTFEQNAMGWYRQAPGKERELVASITSVGSTDYADSVKGRFTISRDNAKNTVYLQMNSLKPEDTAVYYCAKTLGSQKYDFDYWGQGTQVTVSS”, the “polyreactivity (PSR sort gate)” value was “low polyreactivity”.
Take “QVQLVESGGGLVQAGGSLRLSCAASGRTFKYYAMGWYRQAPGKERELVAAISRSGGTTYYADSVKGRFTISRDNAKNTVYLQMNSLKPEDTAVYYCAARCATRSRYDYWGQGTQVTVSS”: the “polyreactivity (PSR sort gate)” value was “high polyreactivity”.
Turning to “QVQLVESGGGLVQAGGSLRLSCAASGFTFVWYAMGWYRQAPGKEREFVAAINRSGGSTYYADSVKGRFTISRDNAKNTVYLQMNSLKPEDTAVYYCAAESWRGWSEFYYWGQGTQVTVSS”, the “polyreactivity (PSR sort gate)” value is listed as “high polyreactivity”.
For “QVHLVESGGGLVQAGGSLRLSCAASGRIFRTYAMGWYRPAPGKERELVAAISGSGGRTYYADSVKGRFTISRDNAKNTVYLQMNSLIPEDTAVSYCAKYVSIVRYGSTTNYDYWGQGTQVTVSS”, the “polyreactivity (PSR sort gate)” value is “high polyreactivity”.
Consider “QVQLVESGGGLVQAGGSLRLSCAASGRTFGINAMGWYRQAPGKDRELVAAIRTGGSTYYADSVKGRFTISRDNAMNTVYLQMNSLKPEDTAVYYCAAKAYRRYTIPPYGYWGQGTQVTVSS”, for which the “polyreactivity (PSR sort gate)” value is given as “high polyreactivity”.
The result for “QVQLVESGGGLVQAGGSLRLSCAASGRTFSWYAMGWYRQAPGKERELVAAITWSGGSTYYADSVKGRFTISRDNAKNTVYLQMNSLKPEDTAVYYCNALRYSNRRYYSTGPHDYWGQGTQVTVSS” reads “high polyreactivity”; that for “QVQLVESGGGLVQAGGSLRLSCAASGRIFLFYAMGWYRTAPGKERELVAGIRSGGSTNYADSVKGRFTISRDNAKNTVYLQMNSLKQEDTAVYYSAAASYFVYPRLEGYWGQGTQVTVSS”, “low polyreactivity”; that for “QVQLVESGGGLVQAGGSLRLSCAASGSIFLGYAMGWYRQAPGKERELVATITSSGSTSYADSVKGRFTISRDNAKNTVYLQMKSLKPEDTAVYFCNTDLFQYGVNHYEYWGQGTQVTVSS”, “high polyreactivity”.
On to “QVQLVESGGGLVQAGGSLRLSCAASGSIFRGNAMGWYRQATGKERELVAAITSRASSTYYADSVKGRFTLSRDNAKNTVYLQMNSLKPEDTAVYYCAAKWVRSYYTFDHWGQGTQVTVSS”, for which the “polyreactivity (PSR sort gate)” value is on record as “high polyreactivity”.
In the case of “QVQLVESGGGLVQAGGSLRLSCAASGRTFTRYAMGWYRQAPGKERELVAAISWSGGSTYYADSVKGRFTISRDNAKNSVYLQMNSLKPEDTAVYYCNAYYYYPEFNYWGLGTQVTVSS”, the “polyreactivity (PSR sort gate)” value is reported as “high polyreactivity”.
With “QVQLVESGGGLVQAGGSLRLSCAASGSIFYQYAMGWYRQAPGKERELVAAISRSGGSTYYADSVKGRFTISRDNPKNTVYLQMNSLKPEDTAGYYCAARAVRAAYDYWGQGSQVTVSS”, the “polyreactivity (PSR sort gate)” value is listed as “low polyreactivity”.
With “QVQLVESGGGLVQAGGSLRLSCAASGSIFVAYEMGWYRPAPGKERELVAAIDSVGRTNYADSVKGRFTISRDNAKNTDYLQMNSLKRVDTSVYSCNADQYYSFYDPDDYWGQGTQVTVSS” the entry was “low polyreactivity”.
For “QVQLVESGGGLVQAGGSLRLSCAATGSIFYAYAMGWYRQAPGKERELVAGISGGGSTNYADSVKGRFTISRDNAKNTVYLQMNSLKPEDTAVYYCAADGWLSATYDGLPDSDSWGQGTQVTVSS”, the “polyreactivity (PSR sort gate)” value was “high polyreactivity”.
On to “QDQLVESGGGLVQAGGSLRLSCAASGNTFRYYALGGYRQAPGKERELVATITSGGRTYYADSVKGRFTISRDNAKNTVYLQMNSLKPEDTAVHYGAAVGLDYFVGEYDYWGQGTQVTVSS”, for which the “polyreactivity (PSR sort gate)” value is “low polyreactivity”.
Turning to “QVQLVESGGGLVQAGGSLRLSCAASGSIFANNVMGWYRQAPGKEREFVAAISWSGGRTYYADSVTGRFTISRDNAKNTVYLQMNSLKPEDTAVYYCARRPRAWGQGTQVTVSS”, the “polyreactivity (PSR sort gate)” value is “high polyreactivity”.
With “QVQLVESGGGLVQAGGSLRLSCAASGFIFSIYAMGLYRQAPGTERELVAGIDNGGGTYYADSVKGRFTISRDNAKNTVYLQMNSLKPEDTAVYYCAADTYSIGELYDYWGQGTQVNVSS” the entry was “low polyreactivity”.
In the case of “QVQLVESGGGLVQAGGSLRLSCAASGFTFTRNAMGRYRQAPGKERELVAAITSSGGRTYYADSVKGRFTISRDNAKNTVYLQMNSLKPVDTAVYYCAVYPRYSLPARDYDYWGQGTQVTVSS”, the “polyreactivity (PSR sort gate)” value is listed as “high polyreactivity”.
For “QVQLVESGGGLVQAGGSLRLSCAASGFTFRWYTMGWYRQAPGKERELVASINWSTGTPYYADSVKGRFTISRDNAKNTVYLQMNSLNPEDTAVYYCNARFRGRVYDRFGYRGQGTQVTVSS”, the “polyreactivity (PSR sort gate)” value is “high polyreactivity”.
Turning to “QVQLVESGGGLVQAGGSLRLSCASSGITFPFYTMGWYRQAPGKERELVAAISSRGTSTYYADSVKGRFTISRDNAKNTVYLQMNSLKPEDTAVYYCKARATPQRAYDSWGQGTQVTVSS”, the “polyreactivity (PSR sort gate)” value is given as “high polyreactivity”.
“QVQLVDSGGGLGQVGGSRRVSCAASGRTFWWYPMGWYRQSPGKERELVAAISRGSTNYADSVKGRFAISRDNAKNTVYLQMNSQKPEDTAVYYCAAYVVWLYGYDYGGQGTQVTVSS”: the “polyreactivity (PSR sort gate)” value is “low polyreactivity”.
For “QVQLVESGGGLVQAGGSLRLSCAASGRILWYNAMGWYRQAPGKERELVAAITSDGSTDYADSVKGRFTISRDNAKNTVYLQMNSLKPEDTAVYYCAKLYIRQYPTWYRYYYWGQGTQVTVSS”, the “polyreactivity (PSR sort gate)” value was “high polyreactivity”.
For “QVQLVESGGGLVQAGGSLRLSCAASGGIFPGYAMGWYRQAPGKETELVAAISGSGSSTYYADSVKGRFTISRDHAKNTVYVQMNSLKPEDTAVYYCNVVTRVLPTRFDYWGQGTQVTVSS”, the “polyreactivity (PSR sort gate)” value was “high polyreactivity”.
Consider “QVQLVESGGGLDQAGGSLRLSCAASGKTFGNYGMGWYRQAPGKERELVAAISWTGGSTYYADSVKGRFTISRDNAKNTVYLQMNSMKPEDTAVYSCNKRPYLLFDYWGQGTQVTVSS”, for which the “polyreactivity (PSR sort gate)” value is “high polyreactivity”.
With “QVQLVESGGGLVQAGGSILLICSASGGNFYVYSMGWYRQAPGKERELVAAIRYSGGSTCYADSVKGRFTISRDNAKNTVYLLMNSLKTEYTAVYYCATVGWPFYPARDYDYSGQGTQVTVSS” the entry was “low polyreactivity”.
